Data taken from publication PMC7021693.
Like-named read-outs stand apart in the source and are kept apart here.

Assays:
VEGF-A165 (Homo sapiens) [1] = molecular target: VEGF-A165 (Homo sapiens) (UniProt P15692); conditions: cited from earlier work
VEGF-A165 (Homo sapiens) [2] = molecular target: VEGF-A165 (Homo sapiens) (UniProt P15692); conditions: cited from earlier work; remark: listed apart in the source
[3] = SEC; as a9; sample: ziv-AFL 25 mg/mL, 60 °C for 3 h
[4] = SEC; as a9; sample: ziv-AFL 25 mg/mL, 60 °C for 1 h
[5] = SEC; as a9; sample: ziv-AFL diluted in NaCl 1.5 M
[6] = SEC; as a9; sample: ziv-AFL medicine adjusted to pH 5.2
[7] = SEC; as a9; sample: ziv-AFL diluted in GndHCl 8 M
[8] = molecular target: ziv-aflibercept (Zaltrap, 25 mg/mL) (human); assay: SEC; as a9; sample: ziv-AFL 25 mg/mL, light irradiation (250 W/m^2) for 12 h
[9] = molecular target: ziv-aflibercept (Zaltrap, 25 mg/mL) (human); assay: as above; remark: listed apart in the source
VEGF [10] = molecular target: VEGF (UniProt P15692); assay: ELISA; as a1; sample: ziv-AFL medicine adjusted to pH 5.2 with 0.1 M HCl
[11] = molecular target: ziv-aflibercept (Zaltrap, 25 mg/mL) (human); assay: SEC; as a9; sample: ziv-AFL 25 mg/mL, 60 °C for 3 h
[12] = molecular target: ziv-aflibercept (Zaltrap, 25 mg/mL) (human); assay: SEC; as a9; sample: ziv-AFL medicine adjusted to pH 7.2
[13] = molecular target: ziv-aflibercept (Zaltrap, 25 mg/mL) (human); assay: SEC; as a9; sample: ziv-AFL 25 mg/mL, 60 °C for 1 h
[14] = molecular target: ziv-aflibercept (Zaltrap, 25 mg/mL) (human); assay: SEC; SE-HPLC/DAD, SEC-5 column, 25 °C, 150 mM phosphate pH 7.0, 0.35 mL/min, 1 ul injected; masses estimated from the column calibration; sample: fresh (control) ziv-AFL 25 mg/mL
VEGF [15] = molecular target: VEGF (UniProt P15692); assay: ELISA; as a1; sample: ziv-AFL medicine adjusted to pH 7.2 with 1 M NH3
[16] = molecular target: ziv-aflibercept (Zaltrap, 25 mg/mL) (human); assay: SEC; as a9; sample: ziv-AFL diluted in NaCl 1.5 M
[17] = molecular target: ziv-aflibercept (Zaltrap, 25 mg/mL) (human); assay: SEC; as a9; sample: ziv-AFL 25 mg/mL, 2 freeze-thaw cycles
[18] = molecular target: ziv-aflibercept (Zaltrap, 25 mg/mL) (human); assay: SEC; as a9; sample: ziv-AFL medicine adjusted to pH 5.2
[19] = molecular target: ziv-aflibercept (Zaltrap, 25 mg/mL) (human); assay: SEC; as a9; sample: ziv-AFL diluted in GndHCl 8 M
[20] = molecular target: ziv-aflibercept (Zaltrap, 25 mg/mL) (human); assay: SEC; as a9; sample: ziv-AFL 25 mg/mL, 60 °C for 2 h
[21] = molecular target: ziv-aflibercept (Zaltrap, 25 mg/mL) (human); assay: SEC; as a9; sample: ziv-AFL 25 mg/mL, 1 freeze-thaw cycle

Sequence of ziv-aflibercept (Zaltrap, 25 mg/mL) (chain): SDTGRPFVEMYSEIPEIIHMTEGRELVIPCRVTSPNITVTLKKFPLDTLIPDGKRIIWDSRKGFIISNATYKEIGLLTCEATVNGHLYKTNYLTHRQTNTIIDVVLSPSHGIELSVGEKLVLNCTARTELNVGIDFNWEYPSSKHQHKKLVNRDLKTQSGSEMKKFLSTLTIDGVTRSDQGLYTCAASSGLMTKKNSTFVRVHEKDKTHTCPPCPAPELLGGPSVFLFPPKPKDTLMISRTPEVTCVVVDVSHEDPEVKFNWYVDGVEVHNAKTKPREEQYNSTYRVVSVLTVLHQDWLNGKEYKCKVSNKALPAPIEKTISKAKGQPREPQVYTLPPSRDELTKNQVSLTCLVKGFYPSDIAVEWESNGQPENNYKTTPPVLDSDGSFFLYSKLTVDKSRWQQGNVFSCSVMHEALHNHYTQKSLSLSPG
Sequence of ziv-aflibercept (Zaltrap, 25 mg/mL) (Fc fusion) (chain): as above
Sequence of VEGF-A165 (Homo sapiens) (P15692 whole entry): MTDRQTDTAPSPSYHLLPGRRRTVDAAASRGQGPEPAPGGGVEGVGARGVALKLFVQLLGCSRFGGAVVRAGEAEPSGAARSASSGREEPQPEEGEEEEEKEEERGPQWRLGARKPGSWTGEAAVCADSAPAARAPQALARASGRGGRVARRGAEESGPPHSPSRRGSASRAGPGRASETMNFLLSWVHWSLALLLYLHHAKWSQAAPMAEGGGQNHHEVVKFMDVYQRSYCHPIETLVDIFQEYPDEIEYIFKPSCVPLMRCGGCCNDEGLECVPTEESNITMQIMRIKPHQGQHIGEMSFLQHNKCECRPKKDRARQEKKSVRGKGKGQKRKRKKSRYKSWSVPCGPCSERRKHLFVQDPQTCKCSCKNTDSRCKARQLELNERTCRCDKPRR
Sequence of VEGFR2 (P35968 20-1356): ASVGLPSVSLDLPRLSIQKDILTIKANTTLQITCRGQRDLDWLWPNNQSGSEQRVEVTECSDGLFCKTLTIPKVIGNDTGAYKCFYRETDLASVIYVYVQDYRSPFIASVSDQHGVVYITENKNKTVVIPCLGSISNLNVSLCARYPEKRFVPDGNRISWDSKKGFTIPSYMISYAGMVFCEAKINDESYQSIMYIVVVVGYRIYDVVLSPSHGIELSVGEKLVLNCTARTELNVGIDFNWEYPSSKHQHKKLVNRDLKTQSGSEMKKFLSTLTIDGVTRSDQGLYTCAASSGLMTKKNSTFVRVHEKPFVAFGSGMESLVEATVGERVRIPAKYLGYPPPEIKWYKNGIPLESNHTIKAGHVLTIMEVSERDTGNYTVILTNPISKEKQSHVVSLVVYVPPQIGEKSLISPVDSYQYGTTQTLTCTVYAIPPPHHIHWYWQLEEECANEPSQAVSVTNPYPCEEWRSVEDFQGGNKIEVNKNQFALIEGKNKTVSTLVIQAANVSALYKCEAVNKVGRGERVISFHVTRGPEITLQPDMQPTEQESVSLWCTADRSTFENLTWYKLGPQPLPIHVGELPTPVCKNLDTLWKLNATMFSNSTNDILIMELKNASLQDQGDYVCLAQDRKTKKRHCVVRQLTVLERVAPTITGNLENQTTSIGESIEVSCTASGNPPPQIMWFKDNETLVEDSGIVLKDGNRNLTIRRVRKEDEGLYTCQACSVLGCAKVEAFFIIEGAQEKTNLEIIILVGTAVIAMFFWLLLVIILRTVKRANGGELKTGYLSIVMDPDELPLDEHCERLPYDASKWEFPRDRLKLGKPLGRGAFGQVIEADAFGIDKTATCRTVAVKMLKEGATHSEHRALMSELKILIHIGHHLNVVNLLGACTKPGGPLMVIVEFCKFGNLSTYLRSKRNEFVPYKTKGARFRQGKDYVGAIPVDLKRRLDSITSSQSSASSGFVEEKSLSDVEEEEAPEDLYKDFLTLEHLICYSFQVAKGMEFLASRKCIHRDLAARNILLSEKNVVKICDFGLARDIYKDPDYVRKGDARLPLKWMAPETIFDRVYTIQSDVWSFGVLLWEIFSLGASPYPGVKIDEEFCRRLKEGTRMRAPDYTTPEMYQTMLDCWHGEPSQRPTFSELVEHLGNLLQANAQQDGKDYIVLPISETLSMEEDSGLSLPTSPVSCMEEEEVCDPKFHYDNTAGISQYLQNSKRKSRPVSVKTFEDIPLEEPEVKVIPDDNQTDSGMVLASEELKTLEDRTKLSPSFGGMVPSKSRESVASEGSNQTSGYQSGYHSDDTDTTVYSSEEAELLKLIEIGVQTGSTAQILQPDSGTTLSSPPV
Sequence of VEGFR1 (P17948 27-1338): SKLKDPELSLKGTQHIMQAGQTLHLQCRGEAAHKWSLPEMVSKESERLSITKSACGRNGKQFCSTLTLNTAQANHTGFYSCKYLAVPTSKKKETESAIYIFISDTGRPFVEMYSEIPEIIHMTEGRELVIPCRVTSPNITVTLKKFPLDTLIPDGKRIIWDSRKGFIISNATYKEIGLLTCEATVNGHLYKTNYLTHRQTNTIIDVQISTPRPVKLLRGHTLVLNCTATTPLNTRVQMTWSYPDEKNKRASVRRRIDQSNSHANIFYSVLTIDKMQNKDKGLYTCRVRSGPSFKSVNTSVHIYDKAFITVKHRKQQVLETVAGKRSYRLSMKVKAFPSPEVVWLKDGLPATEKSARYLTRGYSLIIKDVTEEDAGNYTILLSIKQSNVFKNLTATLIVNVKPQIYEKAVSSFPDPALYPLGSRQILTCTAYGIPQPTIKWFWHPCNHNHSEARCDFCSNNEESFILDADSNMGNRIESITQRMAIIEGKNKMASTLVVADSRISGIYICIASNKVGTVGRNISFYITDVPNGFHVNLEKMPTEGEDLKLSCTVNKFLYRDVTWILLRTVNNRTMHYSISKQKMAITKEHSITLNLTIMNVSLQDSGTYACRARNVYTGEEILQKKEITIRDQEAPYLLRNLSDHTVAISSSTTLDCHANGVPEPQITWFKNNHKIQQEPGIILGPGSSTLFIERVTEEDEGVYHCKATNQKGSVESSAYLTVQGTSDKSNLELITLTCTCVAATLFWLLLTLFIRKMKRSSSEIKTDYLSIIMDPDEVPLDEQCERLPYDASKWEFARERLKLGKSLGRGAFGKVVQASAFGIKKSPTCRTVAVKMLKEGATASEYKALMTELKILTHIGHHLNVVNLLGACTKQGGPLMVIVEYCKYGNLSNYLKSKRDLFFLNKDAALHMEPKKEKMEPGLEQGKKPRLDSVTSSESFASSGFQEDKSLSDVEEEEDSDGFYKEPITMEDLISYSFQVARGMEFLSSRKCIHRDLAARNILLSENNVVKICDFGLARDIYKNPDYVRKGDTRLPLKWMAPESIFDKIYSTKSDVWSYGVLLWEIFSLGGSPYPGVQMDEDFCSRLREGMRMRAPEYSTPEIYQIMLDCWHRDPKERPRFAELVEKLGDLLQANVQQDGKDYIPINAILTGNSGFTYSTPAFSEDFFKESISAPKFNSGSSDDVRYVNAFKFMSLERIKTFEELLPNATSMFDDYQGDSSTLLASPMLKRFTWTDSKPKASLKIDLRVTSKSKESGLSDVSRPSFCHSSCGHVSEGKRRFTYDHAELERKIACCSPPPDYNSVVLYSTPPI

## VEGFR1 (from UniProt P17948)
VEGF-A165 (Homo sapiens) [1]
  Kd: 0.00933 nM

## VEGFR2 (from UniProt P35968)
VEGF-A165 (Homo sapiens) [2]
  Kd: 0.0888 nM

## ziv-aflibercept (Zaltrap, 25 mg/mL)
[3]
  abundance of non-natural HMW aggregates (% of total peak area): 55.2%
[4]
  abundance of non-natural HMW aggregates (% of total peak area): 22.1%
[5]
  abundance of non-natural HMW aggregates (% of total peak area): 1.1%
[6]
  abundance of non-natural HMW aggregates (% of total peak area): 0.8%
[7]
  abundance of non-natural HMW aggregates (% of total peak area): 7.2% and a higher order of aggregation at 5.46 min (5.56%)

## ziv-aflibercept (Zaltrap, 25 mg/mL) (Fc fusion)
[8]
  abundance of dimer (% of total peak area): 12.2%
[9]
  abundance of dimer (% of total peak area): 12.4%
VEGF [10]
  remaining biological activity (ELISA against the control, test samples at 10 and 100 µg/ml): 25%
[11]
  abundance of dimer (% of total peak area): 7.7%
[12]
  abundance of dimer (% of total peak area): 1.8%
[13]
  abundance of dimer (% of total peak area): 8%
[14]
  abundance of dimer (% of total peak area): 1.9%
  stoichiometry N: 2
VEGF [15]
  remaining biological activity (ELISA against the control, test samples at 10 and 100 µg/ml): 36%
[16]
  abundance of dimer (% of total peak area): 1.4%
[17]
  abundance of dimer (% of total peak area): 2.1%
[18]
  abundance of dimer (% of total peak area): 2%
[19]
  abundance of dimer (% of total peak area): 19%
[20]
  abundance of dimer (% of total peak area): 7.8%
  stoichiometry N: 10
[21]
  abundance of dimer (% of total peak area): 1.9%
